Experimental data as given in patent US20210145944.

Assays:
[1] = test system: Bodipy-labelled casein
[2] = biological target: p-Tau-441 (UniProt P10636)
[3] = biological target: α-synuclein (UniProt P37840)
[4] = biological target: Tau-441 (P301L) (UniProt P10636)
[5] = biological target: Tau-410 (UniProt P10636)
[6] = test system: T1, Boc-QAR-AMC (ES014)
T1 sequence: QAR

Tau-441 (P301L), sequence (P10636 other isoform, or with tags, fused parts or gaps P301L): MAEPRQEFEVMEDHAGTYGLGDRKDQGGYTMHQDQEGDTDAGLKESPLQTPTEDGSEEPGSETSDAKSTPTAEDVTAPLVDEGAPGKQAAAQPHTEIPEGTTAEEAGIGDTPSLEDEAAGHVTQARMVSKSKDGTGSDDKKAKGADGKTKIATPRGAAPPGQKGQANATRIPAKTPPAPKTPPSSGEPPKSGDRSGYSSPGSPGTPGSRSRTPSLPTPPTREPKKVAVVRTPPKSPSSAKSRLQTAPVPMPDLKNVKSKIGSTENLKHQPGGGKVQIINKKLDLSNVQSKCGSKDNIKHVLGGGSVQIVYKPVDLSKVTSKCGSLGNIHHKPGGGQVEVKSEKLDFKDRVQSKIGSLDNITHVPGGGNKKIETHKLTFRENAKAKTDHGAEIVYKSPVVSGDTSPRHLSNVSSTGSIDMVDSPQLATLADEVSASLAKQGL
p-Tau-441, sequence (P10636 whole entry, looked up): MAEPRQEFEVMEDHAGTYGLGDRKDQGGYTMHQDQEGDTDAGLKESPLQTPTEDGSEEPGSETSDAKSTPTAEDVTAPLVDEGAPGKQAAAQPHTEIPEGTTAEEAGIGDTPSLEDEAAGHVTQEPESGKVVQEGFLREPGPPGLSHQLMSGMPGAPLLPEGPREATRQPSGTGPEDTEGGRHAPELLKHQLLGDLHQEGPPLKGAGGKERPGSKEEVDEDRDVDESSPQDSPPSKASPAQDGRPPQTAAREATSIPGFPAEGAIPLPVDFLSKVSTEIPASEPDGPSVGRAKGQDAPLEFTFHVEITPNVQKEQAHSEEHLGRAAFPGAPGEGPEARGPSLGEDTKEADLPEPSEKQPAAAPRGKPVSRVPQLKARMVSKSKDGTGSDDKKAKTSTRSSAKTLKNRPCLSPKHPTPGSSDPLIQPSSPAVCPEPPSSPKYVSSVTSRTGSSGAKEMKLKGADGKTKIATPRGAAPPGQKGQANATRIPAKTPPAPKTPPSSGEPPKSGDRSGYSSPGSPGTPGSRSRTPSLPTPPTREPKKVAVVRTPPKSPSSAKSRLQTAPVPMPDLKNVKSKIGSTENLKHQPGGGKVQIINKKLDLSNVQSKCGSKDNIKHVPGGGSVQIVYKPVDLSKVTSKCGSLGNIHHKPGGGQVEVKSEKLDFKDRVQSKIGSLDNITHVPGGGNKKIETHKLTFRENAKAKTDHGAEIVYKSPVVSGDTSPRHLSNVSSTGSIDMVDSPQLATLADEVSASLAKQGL
Tau-410, sequence (P10636 other isoform, or with tags, fused parts or gaps): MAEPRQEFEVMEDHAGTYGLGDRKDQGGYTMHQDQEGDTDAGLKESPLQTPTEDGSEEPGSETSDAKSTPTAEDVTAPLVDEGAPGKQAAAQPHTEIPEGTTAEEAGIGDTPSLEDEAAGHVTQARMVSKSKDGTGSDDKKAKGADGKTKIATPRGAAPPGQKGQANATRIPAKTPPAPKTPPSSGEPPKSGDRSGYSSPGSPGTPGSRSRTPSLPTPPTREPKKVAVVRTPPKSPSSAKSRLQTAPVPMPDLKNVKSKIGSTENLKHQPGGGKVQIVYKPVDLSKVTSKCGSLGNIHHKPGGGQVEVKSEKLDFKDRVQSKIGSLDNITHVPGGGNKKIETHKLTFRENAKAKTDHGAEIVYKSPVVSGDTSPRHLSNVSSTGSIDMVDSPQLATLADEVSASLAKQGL

Substance	casein digestion by resin-immobilized protease, RFU over time [1]	% digestion at 0 min [2]	% digestion at 1 min [2]	% digestion at 5 min [2]	% digestion at 60 min [2]	digestion on immobilized protease column (FIGS. 3B, 3C, 3E, 3F and Table 2) [2]	% digestion at 0 min [3]	% digestion at 1 min [3]	digestion on immobilized protease column (FIGS. 3D and 3G and Table 2) [3]	digestion on immobilized protease column, SDS-PAGE silver stain (FIG. 3A) [4]	loss of the Tau-441 (P301L) band on a silver-stained SDS-PAGE gel after incubation on the protease column [4]	casein digestion by resin-immobilized protease, RFU (520 nm) over time [1]	casein digestion by resin-immobilized protease, fluorescence (RFU) at 5 and 60 min [1]	casein digestion, fluorescence (RFU) of Bodipy-labelled casein after 1 h against protease concentration in solution [1]	casein-digestion activity, immobilized protease, fluorescence [1]	casein-digestion activity, immobilized protease, fluorescence (FIG. 2B) [1]	casein-digestion activity, protease in solution, fluorescence [1]	% digestion at 0 min [5]	% digestion at 1 min [5]	% digestion at 5 min [5]	other results
Cathepsin D resin	no signal: the line falls from 0 to about -6000 RFU at 120 min, at or below the control resin (about 0) over the whole time range																				
trypsin	rises from 0 to about 24000 RFU at 60 min and about 76000 RFU at 120 min; control resin stays at about 0	0%	70%	100%	100%	rapidly degraded	0%	90%	rapidly degraded	rapidly degraded	no band in the Trypsin column lanes at 2, 10 and 20 min; the No protease column lanes show a strong band of equal strength at 2, 10 and 20 min	rises from 0 to about 46000 RFU at 60 min and about 58000 RFU at 120 min; Control-Resin (no protease) stays at or slightly below 0	bar at 5 min about 1.0x10^7 RFU, bar at 60 min about 2.2x10^7 RFU; lowest of the three groups; no control bar drawn	near 0 up to about 0.2 ug/ml, rises slowly to about 1.4x10^7 RFU at 100 ug/ml; no upper plateau; lowest of the three curves	exhibited casein-digestion activity at 5 minute and 60 minute incubation times	exhibited casein-digestion activity at 60 minute and 120 minute incubation times	exhibited casein-digestion activity having linear reaction kinetics up to approximately 6 µg/ml of each protease	0%	59%	65%	% digestion at 5 min [3]: 100%; % digestion at 60 min [3]: 100%; % digestion at 60 min [5]: 93%; digestion on immobilized protease column (FIGS. 3B, 3C, 3E, 3F and Table 2) [5]: rapidly degraded
elastase	rises from 0 to about 40000 RFU at 60 min and about 95000 RFU at 120 min; highest curve; control resin stays at about 0	0%	33%	93%	100%	rapidly degraded	0%	71%	rapidly degraded	rapidly degraded	no band in the Elastase column lanes at 2, 10 and 20 min; the No protease column lanes show a strong band of equal strength at 2, 10 and 20 min, just above the second labelled marker	rises from 0 to about 107000 RFU at 60 min and about 150000 RFU at 120 min; Control-Resin (no protease) stays at or slightly below 0	bar at 5 min about 1.5x10^7 RFU, bar at 60 min about 4.3x10^7 RFU; signal grows with time; no control bar drawn	near 0 at about 0.006 ug/ml, rises steadily to about 8.5x10^7 RFU at 100 ug/ml on a log axis; still rising, no upper plateau; highest of the three curves	exhibited casein-digestion activity at 5 minute and 60 minute incubation times	exhibited casein-digestion activity at 60 minute and 120 minute incubation times	exhibited casein-digestion activity having linear reaction kinetics up to approximately 6 µg/ml of each protease	0%	28%	50%	% digestion at 60 min [5]: 81%; digestion on immobilized protease column (FIGS. 3B, 3C, 3E, 3F and Table 2) [5]: rapidly degraded
kallikrein-6 (KLK6) activated by lysyl endopeptidase	close to the control at 60 min (about 1000-2000 RFU), then about 19000 RFU at 120 min; control resin stays at about 0														also exhibited casein-digestion activity at 120 minute incubation time						cleavage of fluorogenic peptide substrate, immobilized protease, 30, 60, 120 min [6]: exhibited protease activity at all time points tested; cleavage of the fluorogenic peptide substrate by resin-immobilized protease, AMC fluorescence (RFU) over time [6]: about 65000 RFU at 30 min, about 108000 at 60 min and about 215000 at 120 min, still rising; Control resin + ES014 stays at 0
